“Also recorded” adds a separate entry of the source.
B1: Mdh-MGA3: previously reported plasmid pBM19-encoded NAD-dependent methanol dehydrogenase of B. methanolicus MGA3, SEQ ID NO. 8 (protein)
chain: MTTNFFIPPASVIGRGAVKEVGTRLKQIGAKKALIVTDAFLHSTGLSEEVAKNIREAGVDVAIFPKAQPDPADTQVHEGVDVFKQENCDSLVSIGGGSSHDTAKAIGLVAANGGRINDYQGVNSVEKPVVPVVAITTTAGTGSETTSLAVITDSARKVKMPVIDEKITPTVAIVDPELMVKKPAGLTIATGMDALSHAIEAYVAKGATPVTDAFAIQAMKLINEYLPKAVANGEDIEAREKMAYAQYMAGVAFNNGGLGLVHSISHQVGGVYKLQHGICNSVNMPHVCAFNLIAKTERFAHIAELLGENVAGLSTAAAAERAIVALERINKSFGIPSGYAEMGVKEEDIELLAKNAYEDVCTQSNPRVPTVQDIAQIIKNAM
modifications: Bacillus methanolicus MGA3
B2: Mdh2-MGA3: NAD-dependent methanol dehydrogenase encoded by chromosomal gene mdh2 of B. methanolicus MGA3, SEQ ID NO. 2 (protein)
chain: MTNTQSAFFMPSVNLFGAGSVNEVGTRLADLGVKKALLVTDAGLHGLGLSEKISSIIRAAGVEVSIFPKAEPNPTDKNVAEGLEAYNAENCDSIVTLGGGSSHDAGKAIALVAANGGKIHDYEGVDVSKEPMVPLIAINTTAGTGSELTKFTIITDTERKVKMAIVDKHVTPTLSINDPELMVGMPPSLTAATGLDALTHAIEAYVSTGATPITDALAIQAIKIISKYLPRAVANGKDIEAREQMAFAQSLAGMAFNNAGLGYVHAIAHQLGGFYNFPHGVCNAVLLPYVCRFNLISKVERYAEIAAFLGENVDGLSTYDAAEKAIKAIERMAKDLNIPKGFKELGAKEEDIETLAKNAMKDACALTNPRKPKLEEVIQIIKNAM
modifications: Bacillus methanolicus MGA3
B3: Mdh3-MGA3: NAD-dependent methanol dehydrogenase encoded by chromosomal gene mdh3 of B. methanolicus MGA3, SEQ ID NO. 4 (protein)
chain: MKNTQSAFYMPSVNLFGAGSVNEVGTRLAGLGVKKALLVTDAGLHSLGLSEKIAGIIREAGVEVAIFPKAEPNPTDKNVAEGLEAYNAENCDSIVTLGGGSSHDAGKAIALVAANGGTIHDYEGVDVSKKPMVPLIAINTTAGTGSELTKFTIITDTERKVKMAIVDKHVTPTLSINDPELMVGMPPSLTAATGLDALTHAIEAYVSTGATPITDALAIQAIKIISKYLPRAVANGKDIEAREQMAFAQSLAGMAFNNAGLGYVHAIAHQLGGFYNFPHGVCNAILLPHVCRFNLISKVERYAEIAAFLGENVDGLSTYEAAEKAIKAIERMARDLNIPKGFKELGAKEEDIETLAKNAMNDACALTNPRKPKLEEVIQIIKNAM
modifications: Bacillus methanolicus MGA3

How the values were obtained:
Assay type in all cases: biochemical
[1] = Heat stability: pre-incubation of purified MDHs at 45° C. or 60° C. prior to the enzyme assay; details: preincubation at 60° C.; compared to the remaining MDHs
Method: FIG. 5. (A) Temperature stability of MGA3 Mdh, Mdh2 and Mdh3 was tested in vitro. Enzymes were incubated at 45° C. or at 60° C. prior to the enzyme assay. (B) Temperature stability of PB1 Mdh, Mdh1 and Mdh2 was tested in vitro. Enzymes were incubated at 45° C. or at 60° C. prior to the enzyme assay.
The heat stability of the six MDHs was tested by pre-incubation of the proteins at 45° C. and 60° C. and samples were taken at different time points for enzyme assays. As expected, all enzymes retained essentially all catalytic activity upon preincubations at 45° C. (FIG. 5). […] A selection of the experiments was repeated in the presence of equal amounts of purified Act, and this had no effect on temperature stability for any of the MDHs (data not shown).

[2] = In vitro methanol dehydrogenase activity in lysates of recombinant B. subtilis 168; details: for methanol dehydrogenase activity on expression in B. subtilis (in words): 50° C., pH 9.5
Method: B. subtilis 168 cells were transformed with the act-MGA3, mdh-MGA3, mdh2-MGA3, and mdh3-MGA3 expression plasmids, and the analogous vectors coexpressing each of the methanol dehydrogenase genes with the act-MGA3 gene. Positive colonies were picked from the plate and the plasmid was isolated and checked by restriction for positive clones. Colonies were picked from plate and grown overnight at 37° C. (250 rpm) and diluted to OD600=0.1 in 20 ml LB containing chloramphenicol (5 μg/ml). After 3 hrs of growth at 37° C. (250 rpm), 500 μl 40% xylose were added to the culture to induce expression. The culture was grown for another 3 hrs and samples of 2 ml were taken. The sample was spun down for 2 min, 11.000×g and the supernatant was removed. The pellet was resuspended in 300 μl Birnboim A for B. subtilis (10 mM Tris-HCl pH 8.0; 20% sucrose; 50 mM NaCl; 0.25 mg/ml lysozyme; protease inhibitor) and incubated at 37° C. for 30 minutes. The samples were stored at −80° C. before use. In addition, we took advantage of recombinant E. coli cells constructed in the project expressing mdh-MGA3, mdh2-MGA3, mdh3-MGA3 and act-MGA3 from the pET21a plasmid in the in vitro assays.
The activities of the Mdh proteins were measured by following the formation of NADH spectrophoto-metrically. The reaction mixture contained: • 100 μl Glycine-KOH (pH 9.5) • 100 μl 5M Methanol (or 5M ethanol) • 5 μl 1M MgSO4 • 10 μl 50 mM NAD^+ • 10 μl sample • (10 μl E. coli act-pET21a lysate) • 775 μl H2O
The cuvets and reaction mixture without cell lysate were pre-incubated at 50° C. Formation of NADH was followed for 10 minutes at 340 nm at 50° C. The total activity was calculated by dividing the increase in absorption units per min by the extinction coefficient ([…]) and the total protein concentration in U/mg total protein. All assays were performed both by using methanol and ethanol as alternative substrates.

[3] = Substrate specificity of purified MDH proteins on alternative alcohols; details: all alternative alcohol substrates
Method: FIG. 3. Catalytic activities of purified Mdh (black), Mdh2 (dark grey) and Mdh3 (light grey) on various alcohols (200 mM) tested in vitro. (A) Substrate specificity was analysed for MDHs from B. methanolicus MGA3 in vitro. Alcohol substrates were used at concentrations of 500 mM except for pentanol (300 mM) and hexanol (50 mM). The data were calculated from the mean value from two experiments which were done in triplicate. (B) Substrate specificity for MDHs from B. methanolicus PB1 was analysed in vitro. Alcohol substrates were used at concentrations of 500 mM except for pentanol (300 mM) and hexanol (50 mM). The data were calculated from the mean value from two experiments which were done in triplicate.
Alcohol dehydrogenase activities were measured spectrophotometrically essentially as described previously (Hektor, Kloosterman et al. (2002) Chem 277(49): 46966-46973) and the reaction mixture contained: 100 mM Glycine-KOH pH 9.5 (unless otherwise stated), 5 mM MgSO4, 0.5 mM NAD^+ and 500 mM alcohol (methanol, ethanol, propanol, 1,3-propanediol, or butanol). NAD^+ was substituted with equal concentrations of NADP^+, FMN^+, and FAD^+, when indicated. […] The reactions were started by addition of 5-40 μg of the purified MDH proteins, and the production of NADH was monitored at 340 nm for 4 minutes. […]

Row | Molecule | temperature stability in vitro (in words) [1] | methanol dehydrogenase activity on expression in B. subtilis (in words) [2] | ranking of activity in B. subtilis ([2]; Act supplied from E. coli lysates) | ranking of activity in B. subtilis ([2]; act and mdh gene co-expressed from the same plasmid) | catalytic activity on alternative alcohols compared with the remaining MDHs [3]
1 | B1 | only moderate negative effects | expressed active methanol dehydrogenases | most active |  | 
2 | B2 |  | expressed active methanol dehydrogenases |  | most active | 
3 | B3 | Higher Temperature Stabilities; also recorded: improved thermostability | expressed active methanol dehydrogenases |  |  | significantly higher catalytic activity than the remaining enzymes
